Measured values reported in US20240182593A1 (YUHAN, published 2024).

T1: human OX40 protein (Sino Biological, Cat. 10481-H08H) (human, UniProt P43489 29-216)
T1 construct: Bought recombinant protein; also called CD134; TNFRSF4
T1 sequence (looked up): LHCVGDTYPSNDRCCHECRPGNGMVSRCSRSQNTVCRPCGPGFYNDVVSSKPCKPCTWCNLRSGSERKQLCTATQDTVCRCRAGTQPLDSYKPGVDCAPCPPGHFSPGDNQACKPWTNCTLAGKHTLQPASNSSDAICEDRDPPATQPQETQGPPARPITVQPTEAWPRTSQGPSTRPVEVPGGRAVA

T2: human OX40 expressed on cells (human, UniProt P43489 29-277)
T2 construct: whole, on cells
T2 sequence (looked up): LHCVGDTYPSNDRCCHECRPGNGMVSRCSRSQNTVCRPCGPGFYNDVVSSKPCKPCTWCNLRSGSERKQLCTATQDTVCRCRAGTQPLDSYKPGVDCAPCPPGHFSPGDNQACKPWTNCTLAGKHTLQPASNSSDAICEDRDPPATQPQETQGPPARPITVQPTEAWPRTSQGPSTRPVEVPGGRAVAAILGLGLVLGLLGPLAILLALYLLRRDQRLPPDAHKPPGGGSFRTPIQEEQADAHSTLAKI

T3: mouse OX40 (ACRO, Cat. OX0-M5259) (mouse, UniProt P47741 20-211)
T3 construct: Bought protein; construct not described; also called mouse OX40 antigen
T3 sequence (looked up): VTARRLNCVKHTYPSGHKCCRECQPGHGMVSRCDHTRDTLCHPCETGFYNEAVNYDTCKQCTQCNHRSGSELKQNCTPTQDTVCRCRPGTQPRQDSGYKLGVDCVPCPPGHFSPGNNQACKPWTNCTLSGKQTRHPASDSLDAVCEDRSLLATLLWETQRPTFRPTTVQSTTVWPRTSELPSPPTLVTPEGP


How the values were obtained:
[1] = molecular target: T1, human OX40 protein (Sino Biological, …); assay: SPR (BIACORE T200), same test as for the antibodies (capture on protein A chip, human OX40 as analyte), 1:1 model
Experimental: (§1) Quantitative analysis of antigen binding of the OX40-binding antibody prepared in Example 1.3 was performed using a BIACORE T200. The experimental conditions using surface plasmon resonance (SPR) were as follows: Protein A-immobilized CM5 chip (GE Healthcare) was used. 10 mM Glycine-HCl (pH 1.5) was used as the regeneration buffer, and HBS-EP (pH 7.4) was used as the running buffer, antibody dilution, and antigen dilution buffer. OX40-binding antibody was diluted with HBS-EP (pH 7.4), and human OX40 protein (Sino Biological, Cat. 10481-H08H) was serially diluted two-fold from 200 nM. Analysis was performed at all 11 concentrations (200, 100, 50, 25, 12.5, 6.25, 3.13, 1.56, 0.78, 0.39, 0 nM) including 0 nM. First, the OX40-binding antibody was captured on a chip immobilized with protein A (Thermo, Cat. 21184). In the association phase of human OX40 protein, the association time was set to 400-600 seconds and the flow rate was set to 30 μL/min. In the dissociation phase, the dissociation time was set to 400-2000 seconds and the flow rate was set to 30 μL/min. In the regeneration phase, the flow rate was set to 100 μL/min, and the flow time was set to 30 seconds. By using BIACORE Evaluation software, the data were analyzed and fitted in a 1:1 binding model.

[2] = molecular target: T2, human OX40 expressed on cells; assay: flow cytometry on activated human CD4+ T cells
Experimental: (§2) The activity of the OX40-binding antibody prepared in Example 1.3 to bind to activated human T cells was tested as follows.
(§3) To induce OX40 expression, cells were activated for several days prior to the binding assay. Briefly, human CD4⁺ T cells ([…] Technologies) were cultured in the presence of IL-2 (Roche Life Sciences, Indianapolis, IN) and phytohemaglutinin-leucoagglutinin (PHA-L; Roche Life Sciences, Indianapolis, IN) at a concentration of 10 μg/ml for 2 days to activate the human CD4⁺ T cells. The activated CD4⁺ T cells were incubated with OX40-binding antibody serially diluted 5-fold from 1 μM. The bound antibody was detected with a fluorescently labeled anti-human IgG polyclonal secondary antibody, and cells were stained with FITC mouse anti-human CD134 (OX40) antibody clone ACT35 (BD Pharmingen) to detect CD4⁺ T cells expressing OX40. Fluorescence intensity of staining was measured using a BD FACSCantoII flow cytometry analyzer. Mean fluorescence intensity (MFI) of OX40-binding antibody staining was calculated using FlowJo software.

[3] = molecular target: T1, human OX40 protein (Sino Biological, …); assay: ELISA, human OX40 protein coated at 0.1 ug/ml, antibody diluted 4-fold from 100 nM, HRP secondary antibody, O.D. 450 nm
Experimental: (§4) ELISA was performed to quantitatively analyze the antigen-binding activity of the OX40-binding antibody prepared in Example 1.3 to the antigen.
(§5) More specifically, the antigen human OX40 protein (Sino Biological, Cat. 10481-H08H) was added to a 96-well plate (Thermo Scientific, Cat. 469949) at a concentration of 0.1 μg/ml, and coated overnight at 4° C. Here, 200 μl of 3% BSA (Millipore, Cat. 820451) was placed in each well and blocked at room temperature for 2 hours. The OX40-binding antibody (Example 1.3) serially diluted 4-fold from 100 nM was added thereto and reacted at room temperature for 2 hours. After washing 4 times with 300 μl of PBS/Tween-20, HRP-bound secondary antibody (Abcam, Cat. Ab98624) was treated and reacted at room temperature for 1 hour. Then, it was washed 4 times with 300 μl of PBS/Tween-20. Following 100 μl of TMB was added thereto to develop color, 100 μl of 2 N H₂SO₄ was added to stop the reaction. The absorbance was measured at 450 nm using a microplate reader (Perkin Elmer, Victor X5).

[4] = molecular target: T2, human OX40 expressed on cells; assay: flow cytometry on activated human CD4+ T cells, fitted MFI curve
Experimental: as §2, §3

[5] = molecular target: T4, cynomolgus monkey OX40 (R&D, Cat. 10311-OX) (cynomolgus monkey); assay: ELISA, cynomolgus monkey OX40 coated at 0.5 ug/ml, serially diluted antibody, goat anti-human Fab secondary antibody, O.D. 450 nm
T4 construct: Bought protein; construct not described; also called Cynomolgus monkey OX40 antigen; Cyno OX40
Experimental: (§6) To determine the cross-species reactivity of anti-OX40 antibodies to mouse and cynomolgus (Cyno) monkey OX40, mouse OX40 (ACRO, Cat. OX0-M5259) and cynomolgus monkey OX40 (R&D, Cat. 10311-OX) antigens were coated on a 96-well plate at a concentration of 0.5 μg/ml, and the plate was incubated overnight at 4° C. After blocking using 3% BSA, serially diluted OX40 antibodies were treated and incubated for 1 hour at room temperature. Goat anti-human Fab (Jackson ImmunoResearch, Cat. 109-036-097) was diluted 1: 5000 and used as a secondary antibody for detection. Absorbance at 450 nm was read using a microplate reader (Molecular Device). To determine EC50 values for dose-dependent binding of OX40 binding antibodies in mice and cynomolgus monkeys, dose-response data were analyzed using a 4-parameter logistic model with GraphPad Prism.

[6] = molecular target: T3, mouse OX40 (ACRO, Cat. OX0-M5259); assay: ELISA, mouse OX40 coated at 0.5 ug/ml, serially diluted antibody, goat anti-human Fab secondary antibody, O.D. 450 nm
Experimental: as §6

[7] = molecular target: T1, human OX40 protein (Sino Biological, …); assay: SPR (BIACORE T200), antibody captured on protein A chip, human OX40 as analyte, 1:1 model
Experimental: as §1

[8] = molecular target: T1, human OX40 protein (Sino Biological, …); assay: ELISA, human OX40 protein coated at 0.1 ug/ml, serially diluted antibody, HRP secondary antibody, O.D. 450 nm
Experimental: as §4, §5

Binder | koff [1] | EC50 [2] | EC50 (read off the curve) [3] | Bottom [4] | Top [4] | EC50 (read off the curve) [5] | binding result [6] | Kd [7] | koff [7] | EC50 (read off the curve) [8] | kon [7]
OX40L-Fc protein (ACROBiosystems, Cat #. OX0-H5255) (Fc fusion, UniProt P23510 51-183, looked up, Bought; not shown: Fc part of the bought fusion protein) QVSHRYPRIQSIKVQFTEYKKEKGFILTSQKEDEIMKVQNNSVIINCDGFYLISLKGYFSQEVNISLHYQKDEEPLFQLKKVRSVNSLMVASLTYKDKVYLNVTTDNTSLDDFHVNGGELILIHQNPGEFCVL | 0.00119 s⁻¹ | – | – | – | – | – | – | – | – | – | –
O15 (antibody, V domains shown) VH: EVQLLESGGGLVQPGGSLRLSCAASGFTFSSYSMSWVRQAPGKGLEWVSMISSGGGSTYYADSVKGRFTISRDNSKNTLYLQMNSLRAEDTAVYYCARHWRYFDYWGQGTLVTVSS VL: QSVLTQPPSASGTPGQRVTISCSGSSSNIGNNYVSWYQQLPGTAPKLLIYADSKRPSGVPDRFSGSKSGTSASLAISGLRSEDEADYYCGAWDSSLSGYVFGGGTKLTVLG | – | 2.65 nM | ~0.2 nM | 7.36 | 102 | – | – | – | – | – | –
O410 (antibody, human IgG1, lambda, V domains shown) VH: EVQLLESGGGLVQPGGSLRLSCAASGFTFSDYYMSWVRQAPGKGLEWVSGIYSDGSRKYYADSVKGRFTISRDNSKNTLYLQMNSLRAEDTAVYYCARHWSRFDYWGQGTLVTVSS VL: QSVLTQPPSASGTPGQRVTISCSGSSSNIGSNYVTWYQQLPRTAPKLLIYYDSNRPSGVPDRFSGSKSGTSASLAISGLRSEDEADYYCGAWDDSLSGYVFGGGTKLTVLG | – | 0.253 nM | ~0.03 nM | 1.04 | 95.9 | ~0.02 nM | no binding (tested: about 25000 pM) | 1.24 nM | 4.17e-05 s⁻¹ | – | –
O31C (antibody, human IgG1, lambda, V domains shown) VH: EVQLLESGGGLVQPGGSLRLSCAASGFTFSDYDMSWVRQAPGKGLEWVSSISPSSGSIYYADSVKGRFTISRDNSKNTLYLQMNSLRAEDTAVYYCAKDSIWCTNSRCYYDNAMDVWGQGTLVTVSS VL: QSVLTQPPSASGTPGQRVTISCSGSSSNIGNNAVSWYQQLPGTAPKLLIYSDSNRPSGVPDRFSGSKSGTSASLAISGLRSEDEADYYCGSWDYSLSAYVFGGGTKLTVLG | – | – | – | – | – | ~0.08 nM | – | 122 nM | 0.00238 s⁻¹ | ~0.03 nM | –
O212 (antibody, V domains shown, also called O212 antibody) VH: EVQLLESGGGLVQPGGSLRLSCAASGFTFSDYAMSWVRQAPGKGLEWVSWIYYDSGSKYYADSVKGRFTISRDNSKNTLYLQMNSLRAEDTAVYYCAKGPGPNGQLAFDYWGQGTLVTVSS VL: QSVLTQPPSASGTPGQRVTISCTGSSSNIGSNSVSWYQQLPGTAPKLLIYANSHRPSGVPDRFSGSKSGTSASLAISGLRSEDEADYYCGAWDYSLSGYVFGGGTKLTVLG | – | 2.17 nM | – | 5.53 | 99.4 | ~0.02 nM | – | 24.4 nM | 0.00167 s⁻¹ | – | 68300 M⁻¹ s⁻¹
O34 (antibody, V domains shown) VH: EVQLLESGGGLVQPGGSLRLSCAASGFTFSDYYMSWVRQAPGKGLEWVSGISSSGGNKYYADSVKGRFTISRDNSKNTLYLQMNSLRAEDTAVYYCARHWKRFDYWGQGTLVTVSS VL: QSVLTQPPSASGTPGQRVTISCTGPSSNIGNNDVSWYQQLPGTAPKLLIYANSNRPSGVSDRFSGSKSGTSASLAISGLRSEDEADYYCGTWDYSLSGYVLGGGTKLTVLG | – | 0.182 nM | ~0.005 nM | 5.77 | 99.9 | ~0.02 nM | – | 2.4 nM | 5.63e-05 s⁻¹ | – | –
O32 (antibody, V domains shown) VH: EVQLLESGGGLVQPGGSLRLSCAASGFTFSSYSMSWVRQAPGKGLEWVSVISSGGGSTYYADSVKGRFTISRDNSKNTLYLQMNSLRAEDTAVYYCARHWRYFDYWGQGTLVTVSS VL: QSVLTQPPSASGTPGQRVTISCSGSSSNIGNNYVSWYQQLPGTAPKLLIYADSKRPSGVPDRFSGSKSGTSASLAISGLRSEDEADYYCGAWDSSLSGYVFGGGTKLTVLG | – | 0.102 nM | ~0.001 nM | 7.69 | 102 | ~0.2 nM | – | 2.05 nM | 4.13e-05 s⁻¹ | – | –
O35 (antibody, V domains shown) VH: EVQLLESGGGLVQPGGSLRLSCAASGFTFSDYSMSWVRQAPGKGLEWVSAISSDGGSTYYADSVKGRFTISRDNSKNTLYLQMNSLRAEDTAVYYCARRWQTFDYWGQGTLVTVSS VL: QSVLTQPPSASGTPGQRVTISCTGSSSNIGSNAVSWYQQLPGTAPKLLIYHDSHPPSGVPDRFSGSKSGTSASLAISGLRSEDEADYYCGAWDSSLSGYVFGGGTKLTVLG | – | 1.22 nM | ~0.006 nM | -0.361 | 97.3 | – | – | 19.9 nM | 0.000203 s⁻¹ | – | –
